From paper PMC6212790, “How bacterial xenogeneic silencer rok distinguishes foreign from self DNA in its resident genome” (Nucleic Acids Research, 2018)

Key:
[1] = molecular target: the molecule itself; test: SEC; gel filtration on a GE HiLoad 16/600 Superdex 75 preparation grade column; elution volumes compared with cytochrome C (12.4 kD) and the void volume
Rok-C102-185 [2] = molecular target: T1, Rok-C102-185 (Bacillus subtilis subsp. subtilis str. …, UniProt O34857 102-185); test: NMR HSQC; ITC: sodium phosphate buffer, 200 mM NaCl, pH 6, 277 K, 50 uM protein in cell, 750 uM Seq1 DNA; NMR samples: 50 mM sodium phosphate, 50 mM NaCl, pH 6.0; conditions: protein: recombinant, tags: C-terminal His6, blunt
T1 sequence: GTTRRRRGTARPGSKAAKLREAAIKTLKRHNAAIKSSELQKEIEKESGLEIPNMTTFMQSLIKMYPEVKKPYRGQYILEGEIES

Rok-C97-191 = molecular target: T2, Rok-C97-191 (Bacillus subtilis subsp. subtilis str. …, UniProt O34857 97-191); test: NMR titration; ITC: sodium phosphate buffer, 200 mM NaCl, pH 6, 277 K, 50 uM protein in cell, 750 uM Seq1 DNA; NMR samples: 50 mM sodium phosphate, 50 mM NaCl, pH 6.0; conditions: protein: recombinant; tags: C-terminal His6; blunt, self-complementary 12 bp
T2 sequence: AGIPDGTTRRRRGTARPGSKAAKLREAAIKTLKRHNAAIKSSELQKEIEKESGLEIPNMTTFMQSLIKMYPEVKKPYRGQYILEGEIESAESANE

Rok-C114-185 K136A = molecular target: T3, Rok-C114-185 K136A (Bacillus subtilis subsp. subtilis str. …, UniProt O34857 114-185, K136A); test: ITC; ITC: sodium phosphate buffer, 200 mM NaCl, pH 6, 277 K, 50 uM protein in cell titrated with 750 uM Seq1 DNA; PBM: buffer not stated; conditions: protein: recombinant; tags: C-terminal His6; blunt, self-complementary 18 bp
T3 sequence: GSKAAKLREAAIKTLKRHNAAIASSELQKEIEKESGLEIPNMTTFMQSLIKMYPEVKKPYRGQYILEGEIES

Rok-C114-185 K164A = molecular target: T4, Rok-C114-185 K164A (Bacillus subtilis subsp. subtilis str. …, UniProt O34857 114-185, K164A); test: as above; conditions: protein: recombinant; tags: C-terminal His6; blunt, self-complementary 18 bp
T4 sequence: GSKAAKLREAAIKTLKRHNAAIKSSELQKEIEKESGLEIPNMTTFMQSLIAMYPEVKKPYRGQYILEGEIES

Rok-C114-185 K171A = molecular target: T5, Rok-C114-185 K171A (Bacillus subtilis subsp. subtilis str. …, UniProt O34857 114-185, K171A); test: as above; conditions: protein: recombinant; tags: C-terminal His6; blunt, self-complementary 18 bp
T5 sequence: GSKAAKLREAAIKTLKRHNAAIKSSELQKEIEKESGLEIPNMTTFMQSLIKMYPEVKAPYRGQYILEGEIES

Rok-C102-185 [3] = molecular target: T1, Rok-C102-185; test: as above; conditions: protein: recombinant; tags: C-terminal His6; blunt, self-complementary 18 bp
Rok-C114-185 R174A [4] = molecular target: T6, Rok-C114-185 R174A (Bacillus subtilis subsp. subtilis str. …, UniProt O34857 114-185, R174A); test: as above; conditions: protein: recombinant; tags: C-terminal His6; blunt, self-complementary 18 bp
T6 sequence: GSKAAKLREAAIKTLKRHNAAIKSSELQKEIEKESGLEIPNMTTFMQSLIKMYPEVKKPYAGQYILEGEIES

Rok-C114-185 K116A = molecular target: T7, Rok-C114-185 K116A (Bacillus subtilis subsp. subtilis str. …, UniProt O34857 114-185, K116A); test: as above; conditions: protein: recombinant; tags: C-terminal His6; blunt, self-complementary 18 bp
T7 sequence: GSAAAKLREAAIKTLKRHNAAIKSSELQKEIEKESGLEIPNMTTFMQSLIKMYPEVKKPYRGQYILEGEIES

Rok-C114-185 T156A [5] = molecular target: T8, Rok-C114-185 T156A (Bacillus subtilis subsp. subtilis str. …, UniProt O34857 114-185, T156A); test: as above; conditions: protein: recombinant; tags: C-terminal His6; blunt, self-complementary 18 bp
T8 sequence: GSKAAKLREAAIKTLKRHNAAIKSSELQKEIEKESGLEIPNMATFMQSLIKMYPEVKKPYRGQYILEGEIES

Rok-C114-185 = molecular target: T9, Rok-C114-185 (Bacillus subtilis subsp. subtilis str. …, UniProt O34857 114-185); test: as above; conditions: protein: recombinant; tags: C-terminal His6; blunt, self-complementary 18 bp
T9 sequence: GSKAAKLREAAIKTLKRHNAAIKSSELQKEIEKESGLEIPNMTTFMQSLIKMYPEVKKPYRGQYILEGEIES

Rok-C114-185 T157A = molecular target: T10, Rok-C114-185 T157A (Bacillus subtilis subsp. subtilis str. …, UniProt O34857 114-185, T157A); test: as above; conditions: protein: recombinant; tags: C-terminal His6; blunt, self-complementary 18 bp
T10 sequence: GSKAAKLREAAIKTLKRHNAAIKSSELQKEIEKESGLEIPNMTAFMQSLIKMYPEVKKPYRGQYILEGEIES

Rok-C114-185 R174A [6] = molecular target: T6, Rok-C114-185 R174A; test: ITC; ITC: sodium phosphate buffer, 200 mM NaCl, pH 6, 277 K, 50 uM protein in cell, 750 uM Seq1 DNA; NMR samples: 50 mM sodium phosphate, 50 mM NaCl, pH 6.0; conditions: protein: recombinant; tags: C-terminal His6; blunt, self-complementary 18 bp
Rok-C114-185 T156A [7] = molecular target: T8, Rok-C114-185 T156A; test: as above; conditions: protein: recombinant; tags: C-terminal His6; blunt, self-complementary 18 bp

B1: Rok (full-length Rok protein, Bacillus subtilis subsp. subtilis str. 168) (natural protein, B. subtilis subsp. subtilis str. 168, UniProt O34857 1-191, looked up)
chain: MFNEREALRLRLEQLNEAEVKVIREYQIERDKIYAKLRELDRNGSPSEIKKDFRSEKKPDSLPVLAELAAQEIRSYQPQSQQQSVQPQLQSISSLPAGIPDGTTRRRRGTARPGSKAAKLREAAIKTLKRHNAAIKSSELQKEIEKESGLEIPNMTTFMQSLIKMYPEVKKPYRGQYILEGEIESAESANE
notes: Rok, xenogeneic silencer of Bacillus subtilis subsp. subtilis str; cloned into pET-21a(+) NdeI/XhoI; size of the higher order oligomer not determined; source: E. coli Rosetta (DE3), purified (Ni-NTA, size exclusion chromatography)
- binding result [1]: binds

B2: Rok-N^1-95 (N-terminal domain of Rok, residues 1-95) (domain or fragment, B. subtilis subsp. subtilis str. 168, UniProt O34857 1-95, looked up)
chain: MFNEREALRLRLEQLNEAEVKVIREYQIERDKIYAKLRELDRNGSPSEIKKDFRSEKKPDSLPVLAELAAQEIRSYQPQSQQQSVQPQLQSISSL
notes: Rok of Bacillus subtilis subsp. subtilis str; cloned into pET-21a(+) NdeI/XhoI; source: E. coli Rosetta (DE3), purified (Ni-NTA, size exclusion chromatography)
- binding result [1]: binds

B3: 3AT (dsDNA)
DNA 1: CGCATATATGCG
DNA 2: CGCATATATGCG
- binding result (Rok-C102-185 [2]; self-complementary 12 bp): binds
- binding result (Rok-C97-191): binds

B4: 8AT (dsDNA)
DNA 1: CATATATATATATATATG
DNA 2: CATATATATATATATATG
- binding result (Rok-C102-185 [2]; self-complementary 18 bp): binds

B5: Seq1 (dsDNA)
DNA 1: CTAATAACTAGTTATTAG
DNA 2: CTAATAACTAGTTATTAG
- Kd (Rok-C114-185 K136A): 39.4 ± 6.4 µM
- Kd (Rok-C114-185 K164A): 30.9 ± 2.9 µM
- Kd (Rok-C114-185 K171A): 110 ± 35 µM
- Kd (Rok-C102-185 [3]): 7.9 ± 1.3 µM
- Kd (Rok-C114-185 R174A [4]): 89 ± 42 µM
- Kd (Rok-C114-185 K116A): 42.9 ± 8.1 µM
- Kd (Rok-C114-185 T156A [5]): 42.9 ± 7.1 µM
- Kd (Rok-C114-185): 19.7 ± 2.7 µM
- Kd (Rok-C114-185 T157A): 15 ± 1.9 µM
- Kd (Rok-C114-185 R174A [6]): 89 ± 42 µM
- Kd (Rok-C114-185 T156A [7]): 42.9 ± 7.1 µM
